Laboratory results: the DeepSol protein solubility set

Experiment: soluble on expression in E. coli; label from the status in PepcDB or PDB records

Soluble on expression in E. coli, soluble:
MSLKINNLVDLHCHILPAIDDGSPSLEASLELARQAVADGIRYILATPHHMDRHYLNHAGDVVAAVEAFQAELDVNDIPLTIFPGQEVHLNGQLMEKVDDLLSIDTGRHYLLLELPHEMVPSYLDEMIFQLSCEGITPVIAHPERNAQIIAEPQRLYKLAEDGVLAQVTATSLVGTFGEQVQRTAKEFVKCGLVQVVASDAHTLKNRGFAMTKAYQVLNEMDSKYPERFATNARDLLNGEQIEMGQIEIPRKQRKHWLFEGHHHHHH
LKSLRCFWNVRFITLSMLPRYTAQMLRRFIPPMLSLWLLFASLAQANGTVDKIQIKGLDKGDDVEMMKNITVSLSLYSVVGKEQGEFRLEYLLSQAEFQTRQALEPFGYYAPTIRIDAPRQNDHITVVIYVDKGEPVRVRQAHVAMTGAAAQDHYLQRDLEDFKPKLGEIFNHPTYEASKVRITRRLAERGYFDADFTHRRVEVTRAAHAADIDLIWESGRRYDMGPVRFHYDYFHEGLFNPLVYWDEGSYFHEGKLDRLRESLTKLDYFSSIDIQPKPEEADPEGNVPVDVKLERAKSKIYTAGISYGSESGAGLRAGVERRYMNARGHKMNARLDYAQNLKSLTTAYQIPAFKWLDGWYIFFARAYDEQTKYIDLRNVKLSAARSGQINRHLTATASLNALRGRWRYRADDGTNTVAYQQSTLVYPQLEASYVDVDDATFPRNGSAATVLLRGGASALGSKSNFTQLHGQLRWFHGLGASSRLILRGEAGTTWASDLVAMPPSLRFFAGGVNSIRGYAFREVGPRTAKPDAFALGAKHVFSAGAEFEYYYKGGPFGGAVFVDSGSAFNRYPDWHTGVGIGLRYRSPVGPVRVDIARGLNSPDSKIQLYIDIGANL
MLYDVVGVRFKKAGKVYYFDPNQFDISENEFVIVETVRGIEYGKVVITKKQVDENDVVLPLKKVIRIANENDRTIVEENKHAAKEAYQVCQQKVVEHNLDMKLVDVEYTFDRNKIIFYFTADGRIDFRELVKDLAAIFRTRIELRQIGVRDEAKMLGGIGPCGRMLCCSTFLGDFEPVSIKMAKDQNLSLNPAKISGLCGRLMCCLKYENDEYEAAKEQLPDLDQRIQTPHGTGRVIGLNILERLIQVELVDKERIVEYTLDELVNKGLEHHHHHH

Soluble on expression in E. coli, not soluble:
MKNNRYSPDWPQLALQKKQSVNWVCERCGVQCLKPGEGKGLSTGDRYRLRMAVHHCDYDPSNNYPSNLMALCSPCHLYYHRRQRGNVTPGQLTLKFCLEHHHHHH
MGSDKIHHHHHHLDNSTSTATIDPPLRLGLAMWSQNQWQQTVYGNSQAHRLARYAEIFNTVEGNTTFYATPSLQNVQNWYAATHDEFKFTFKLPKHITHELQLQHAGPALQQFFSIMEPLINRTGVWKIQLPASFGPQSLPQLAQFLTQVPQGLTYGVEVRNSAFFAKGEAEQALNRLLIDNNCNRIIMDTRPVFAAAPTTAAVIDAHQKKPKVPVHAIATAHNPVVRFIGHPQAEANIHFFQNWLKQLPLWIAQNKQPYLFIHTPDNHNAPQLAVDLYRLLQQQLAQSTSALTDINLLPQQQHTTTQMGFDL
MAALASSLIRQKREVREPGGSRPVSAQRRVCPRGTKSLCQKQLLILLSKVRLCGGRPARPDRGPEPQLKGIVTKLFCRQGFYLQANPDGSIQGTPEDTSSFTHFNLIPVGLRVVTIQSAKLGHYMAMNAEGLLYSSPHFTAECRFKECVFENYYVLYASALYRQRRSGRAWYLGLDKEGQVMKGNRVKKTKAAAHFLPKLLEVAMYQEPSLHSVPEASPSSPPAPLEHHHHHH
MAHHHHHHMYSSVRPYKILQKVKRNDNNSNSNSNNNSNSNSNSSSIRNPPNEAKKEPTEREDSGKKKPVEKKKKYEDLKYYECNRKSLSTKSQEAEGRDKITKYNNKTNQHADNNHVKKLQSEKVLKKKEDMLVTLLKKEQSSVHNKKIIIRHLPPTLSEDNFFESFPSNLKDELDYYYYVNGCVPKNQGGDITHSRMYLSFKDDLKTKEFIKTQHGKFFYDSNGGKFKAMVSFAPYQTIIHKNKLDEMNNTLESDAYFLKCCEEMNNPQEPVKKDDDNADLSNVIKEDGVILPPLVVALRKKLKNKKLK
MGSDKIHHHHHHMSRLAHNKALPYKIIVDLSFHRTRLPSDVSSLIKFEQRPAIINIHGLLGSHVMFHSLNKLLSRKLDADIFSVDVRNHGISPKAIPYDYTTLTNDLIYFIETHIGLERPIYLLGFSMGGKIALLTTLYKNINIRKCISIDLPPYETPELDPMILQNYDLIMRIIRRDVKILRGSPSWQKKVLELFKSLECNKRKCGGAVALYFANGFLSVKSNNVHQAQLHYEQQQHDPYINYSMPLSSMPNLLDEVKKWPDLSNQRDFFQKGTASRKVLFMKGLQSNFINNDYSLLRYNFPCADVREFNTGHNLLLENPEDSFKCILNFFAEETLDFE
MTQYVFEMGMTCNGCANAARKVLGKLGEDKIKIDDINVETKKITVTTDLPASDVLEALKKTGKEIKQLQ
GPGSMALVADVPPPTATSMAKLFQESSFDPVTTFEAVWLPPRVPAAPPTAGASEPVPFAAVVDVLADISATGSRLECLKQLTFLLLAVIERCPEDLVPVMYLVINKHAPQHEGVELGIGDAVLVKAVAECCGMTETRAKEEYRQSGDLAEIAQMHKQKQGTLMKPKPLSARSVFKTYKEIAMMSGRDVMRRRSDLIKGLLRDAQGPEVNLIVRGLQQKMRIGLAEPSALAAVGYAFALHFLGGAQMHKMDEVQLQTLLNTGADSLARIFYEVPSLDVVLSAVLANGFMTLVPGSSIAKQYAKDLSIRPGLPVKPQLAYPTSSITVILDRLQGKKFTSEYKYDGERAQIHYDKDKGFHIFSRNSETHTGKYPDVISMLPKVFDPVEVQSFILDSEVVAVHSETGALQAFQVLQHRGRKNIAEEDVSIPVCVFVFDILYFNGEPQLNKTLQQRRELLWRCIHPLPAKLSFATHLDSEKVEDVQTFLERSIADGCEGLMVKTLEEEANYTPAKRSHYWLKLKKDYMDGVTDTLDLVPIAAFYGKGKRTGVFGGFLLACYDPKADEYQSICKIGTGFQDEELEKLTQSLKPFVVDEKPRYYRAGGEEPDVWLTEAQVWEVKAADLSVSPVHQAAVGLVDPDKGIALRFPRYLRQREDKKPADATNARQVADMYKAQSLAAEHDANGDAE
VAERFVVTGGNRLSGEVAVGGAKNSVLKLMAATLLAEGTSTITNCPDILDVPLMAEVLRGLGATVELDGDVARITAPDEPKYDADFAAVRQFRASVCVLGPLVGRCKRARVALPGGDAIGSRPLDMHQAGLRQLGAHCNIEHGCVVARAETLRGAEIQLEFPSVGATENILMAAVVAEGVTTIHNAAREPDVVDLCTMLNQMGAQVEGAGSPTMTITGVPRLHPTEHRVIGDRIVAATWGIAAAMTRGDISVAGVDPAHLQLVLHKLHDAGATVTQTDASFRVTQYERPKAVNVATLPFPGFPTDLQPMAIALASIADGTSMITENVFEARFRFVEEMIRLGADARTDGHHAVVRGLPQLSSAPVWCSDIRAGAGLVLAGLVADGDTEVHDVFHIDRGYPLFVENLVSLGAEIERVCC
MGSDKIHHHHHHMEINTEIAIAWMSARQGKVSYSMDYRDGPNSYDCSSSVYYALRSAGASSAGWAVNTEYMHDWLIKNGYELIAENVDWNAVRGDIAIWGMRGHSSGAGGHVVMFIDPENIIHCNWANNGITVNNYNQTAAASGWMYCYVYRLKSGASTQGKSLDTLVKETLAGNYGNGEARKAVLGNQYEAVMSVINGKTTTNQKTVDQLVQEVIAGKHGNGEARKKSLGSQYDAVQKRVTELLKKQPSEPFKAQEVNKPTETKTSQTELTGQATATKEEGDLSFNGTILKKAVLDKILGNCKKHDILPSYALTILHYEGLWGTSAVGKADNNWGGMTWTGQGNRPSGVTVTQGSARPSNEGGHYMHYASVDDFLTDWFYLLRAGGSYKVSGAKTFSEAIKGMFKVGGAVYDYAASGFDSYIVGASSRLKAIEAENGSLDKFDKATDIGDGSKDKIDITIEGIEVTINGITYELTKKPV
MSDSDIPSSTLYKDNVDWKDITPIYPSKEEEVAVKIAVTEDFTDAFAYFRAILIKNEKSDRVMALLEDCIRLNPANYTVWQYRRVCLTELGWDLKKEMRYLSDIIQESPKNYQVWHHRRFIVETIGESAVNDELHFCSEVIRDENKNYHAWQHRQWVVRTFKVPLEKELTFALHMLLLDNRNNSAYNYRYFLMTLYDKTEDASQLDIEINLAKKFIENIPNNESAWNYLAGLLITNGVTSNSDVVSFVEDLYETTPEEKRSPFLLAFIADMMLENIENQKSAEESAGRAKKLYKDLQSIDPVRVNYYRHQSLLAQTMLIKAQTKVTAK
